According to patent US20210403567A1, “METHODS OF TREATING CERVICAL CANCER BY ADMINISTERING A PD-1 INHIBITOR” (priority 2020, published 2021):

Tests used:
cervical cancer = experiment: Dose escalation cohort of the cemiplimab first-in-human study, cervical cancer patients; assay type: in vivo; details: one cervical squamous patient, earlier response to cemiplimab+hfRT in dose escalation
Description: (Papadopoulos et al., Clin Cancer Res (December 2019) Epub). The sum total equates to a 17% objective response rate among cervical cancer patients enrolled in the phase I study (4/23 combined; 2/3 responding patients in dose escalation plus 2/20 in expansion cohorts). All responders had squamous histology.

[1] = test system: recurrent or metastatic cervical cancer; experiment: Phase I expansion cohorts: cemiplimab 3 mg/kg IV Q2W alone or plus hfRT, tumor response (RECIST 1.1), PFS, OS; assay type: in vivo, human
Description: (§1) The combination therapy cohort enrolled patients for whom palliative hfRT was planned to a lesion that was causing some signs or symptoms. The radiated lesion was not followed as a target lesion for response assessments.
Additional eligibility criteria included an Eastern Cooperative Oncology Group performance status score of 0 or 1, and adequate organ function. Patients were required to have at least one measurable lesion per Response Evaluation Criteria in Solid Tumors (RECIST) version 1.1. (Eisenhauer et al., Eur J Cancer 45 (2009) 228-47). In the combination therapy cohort, the measureable lesion(s) were in addition to the irradiated lesion.
(§2) Assessments: Tumor histology was assessed per local pathology reports of tumor samples obtained at any time prior to study enrollment. […] Extensive safety evaluations were performed during screening and on Day 1 of each subsequent treatment cycle throughout the study. Routine safety evaluations were performed at each cemiplimab dosing visit. Tumor response assessments were performed by investigators, per RECIST 1.1, at the end of each 8-week treatment cycle. In combination therapy cohorts, the lesions selected for hfRT were not included in RECIST 1.1 assessments.
(§3) Statistical analysis of clinical data: The safety summaries and analyses were performed on the safety analysis set. Data were summarized using descriptive statistics, along with two-sided 95% confidence interval (CI), by dose cohort. Continuous variables were summarized with mean, median, standard deviation, minimum, and maximum. Categorical variables were summarized with frequency and percentage. Kaplan-Meier analysis was performed for progression-free survival (PFS) and OS.

[2] = Phase I expansion cohorts: safety, treatment-emergent adverse events (NCI CTCAE 4.03); assay type: in vivo, human
Procedure: as §1, §2, §3

[3] = investigator assessment, n = 10 per cohort

cemiplimab
response to retreatment after disease recurrence (cervical cancer): complete response
objective response rate among cervical cancer patients enrolled in the phase I study ([1]; 4/23 combined: dose escalation plus expansion cohorts): 17%
responding patients in expansion cohorts ([1]; both expansion cohorts combined): 2/20
NE (not evaluable), n (%) ([1]; includes missing and unknown tumor response, n = 10 per cohort): 1 n (%)
ORR, % (95% CI) ([1]; investigator assessment, RECIST 1.1, n = 10 per cohort): 10.0%
Partial response, n (%) [1, 3]: 1 n (%)
Progressive disease, n (%) [1, 3]: 5 n (%)
Stable disease, n (%) [1, 3]: 3 n (%)
Kaplan-Meier estimation of median OS ([1]; n = 10 per cohort): 10.3 months
Kaplan-Meier estimation of median PFS ([1]; n = 10 per cohort): 1.9 months
patients with best response of stable disease ([1]; n = 10 per cohort): 30%
Disease control rate, % (95% CI) ([1]; objective response or stable disease, n = 10 per cohort): 40.0%
patients with partial response ([1]; one patient in each cohort of 10): 10%
DOR (duration of response) ([1]; one responder in each group): 11.2 months
Observed time to response ([1]; one responder in each group): 1.8 months
Durable disease control rate, % (95% CI) ([1]; without progression for at least 16 weeks (105 days), n = 10 per cohort): 20.0%
Treatment-related TEAEs (Grade 3) ([2]; 1/10): 10%
Treatment-related TEAE: Any ([2]; Grade ≥ 3, n = 10 per cohort): 1 n (%)
Treatment-related TEAE: Diarrhea ([2]; Grade ≥ 3, n = 10 per cohort): 0 n (%)
Treatment-related TEAE: Fatigue ([2]; Grade ≥ 3, n = 10 per cohort): 1 n (%)
Treatment-related TEAE: Hyponatremia ([2]; Grade ≥ 3, n = 10 per cohort): 0 n (%)
Treatment-related TEAE: Hypothyroidism ([2]; Grade ≥ 3, n = 10 per cohort): 0 n (%)
Treatment-related TEAE: Myalgia ([2]; Grade ≥ 3, n = 10 per cohort): 1 n (%)
Treatment-related TEAE: Pneumonitis ([2]; Grade ≥ 3, n = 10 per cohort): 0 n (%)
Treatment-related TEAE: Any ([2]; any grade, n = 10 per cohort): 7 n (%)
Treatment-related TEAE: Diarrhea ([2]; any grade, n = 10 per cohort): 2 n (%)
Treatment-related TEAE: Fatigue ([2]; any grade, n = 10 per cohort): 3 n (%)
Treatment-related TEAE: Hyponatremia ([2]; any grade, n = 10 per cohort): 1 n (%)
Treatment-related TEAE: Hypothyroidism ([2]; any grade, n = 10 per cohort): 2 n (%)
Treatment-related TEAE: Myalgia ([2]; any grade, n = 10 per cohort): 1 n (%)
Treatment-related TEAE: Pneumonitis ([2]; any grade, n = 10 per cohort): 1 n (%)
TEAE fatigue ([2]; both cohorts combined (5/20)): 25%
TEAE hypokalemia ([2]; both cohorts combined (5/20)): 25%
TEAE diarrhea ([2]; both cohorts combined (7/20)): 35%
patients who experienced grade TEAEs ([2]; four patients of 10 per cohort): 40.0%
TEAEs of any grade, regardless of treatment attribution ([2]; n = 10 per cohort): 9 patients
discontinued treatment due to TEAEs ([2]; n = 10 per cohort): No patients
